Results as given in WO2013167756A1.

Biological target: CD22 on CD22-positive Raji cells and CD22 positive Ramos cells (human) (UniProt P20273)
Assay: flow cytometry on CD22-positive Raji cells, PE anti-human IgG Fc secondary, four-parameter fit

EC50: 9 nM
Substance: AGC1100, anti-CD22 monoclonal antibody hLL2, also called epratuzumab
